Reference: patent US20180050058

Legend:
Experiment in all cases: pulldown
[1] = tested on: Hemagglutinin H5N1 A/goose/Guiyang/337/2006 (G-8) (Influenza A virus H5N1 (A/goose/Guiyang/337/2006))
[2] = tested on: Hemagglutinins of 14 non-H5 subtypes (H1-H4, H6-H13, H15, H16; Table 1 strains) (Influenza A virus)
[3] = tested on: Hemagglutinin H5N1 A/duck/Hunan/795/2002 (HN-8) (Influenza A virus H5N1 (A/duck/Hunan/795/2002))
[4] = tested on: Hemagglutinin H5N2 A/American green-winged teal/California/HKWF609/2007 (A-17) (Influenza A virus H5N2 (A/American green-winged teal/California/HKWF609/2007))
[5] = tested on: Hemagglutinin H5N1 A/Indonesia/5/2005 (IN-3) (Influenza A virus H5N1 (A/Indonesia/5/2005))
[6] = tested on: Hemagglutinin H5N1 A/Vietnam/1994/2004 (V-16) (Influenza A virus H5N1 (A/Vietnam/1994/2004))
[7] = tested on: Hemagglutinin H5N1 A/Egypt/2321-NAMRU3/2007 (EG-2) (Influenza A virus H5N1 (A/Egypt/2321-NAMRU3/2007))
[8] = tested on: Hemagglutinin H5N8 A/duck/NY191255-59/2002 (D-14) (Influenza A virus H5N8 (A/duck/NY191255-59/2002))
[9] = tested on: Hemagglutinin H5N1 A/Hubei/2010 (HB-16) (Influenza A virus H5N1 (A/Hubei/2010))
[10] = tested on: Hemagglutinin H5N3 A/duck/Hokkaido/167/2007 (HK-12) (Influenza A virus H5N3 (A/duck/Hokkaido/167/2007))
[11] = tested on: Hemagglutinin H5N1 A/Cambodia/R0405050/2007 (C-8) (Influenza A virus H5N1 (A/Cambodia/R0405050/2007))
[12] = tested on: Hemagglutinin H5N1 A/bar-headed goose/Qinghai/14/2008 (Hg-2) (Influenza A virus H5N1 (A/bar-headed goose/Qinghai/14/2008))
[13] = tested on: Hemagglutinin H5N1 A/Japanese white-eye/Hong Kong/1038/2006 (JW-1) (Influenza A virus H5N1 (A/Japanese white-eye/Hong Kong/1038/2006))
[14] = tested on: Hemagglutinin H5N1 A/Hong Kong/483/97 (H-12) (Influenza A virus H5N1 (A/Hong King/483/97))

Row | Sequence | binding signal [2] | further results
1 | TGTCGGGGGAACAATCTGTGTTCGCTTGTC [A10] | < 20% | Kd [1]: 5.74 nM
2 | CTTCTTCCACCCATGCCGGCTGGAGAATCC [A5] | < 20% | Kd [3]: 12.4 nM
3 | GCGAGGTTGAGCGTGGGCTACTTGGTTCAT [A11] | < 20% | Kd [4]: 3.5 nM
4 | TGGATTCACGCGGTCTCCGCCCTTGGGTGG [A6] | < 20% | Kd [5]: 14 nM
5 | TGGCAGTGGGTTGAGGGGAAGTCTTATTCG [A3] | < 20% | Kd [6]: 7.57 nM
6 | TGGGTTTGGAAATTGGGACACAGTGGGGCG [A7] | < 20% | Kd [7]: 1.96 nM
7 | TACTTATGTGGGCCGGTGCGTTTGCATTTT [A13] | < 20% | Kd [8]: 0.7 nM
8 | ATTGCAAGGAGAGGCTACGGCTATGACAGA [A8] | < 20% | Kd [9]: 9.4 nM
9 | TGCACGCAGGGGCCGCTTGGGTGGAGAGGC [A12] | < 20% | Kd [10]: 3.5 nM
10 | TCACGCTTTTGGTGCATGCAGAGTTTTGTG [A4] | < 20% | Kd [11]: 43.6 nM
11 | GGGGTCAACTTTTCCTTTGTCGGTTTT [A2] | < 20% | Kd [12]: 13.4 nM
12 | TGGATTGCACGCAGGGGCCGCTTGGCTGTC [A9] | < 20% | Kd [13]: 7.84 nM
13 | AGTGGGTTCTTGGTGCATCCCAGGAGTACC [A1] | < 20% | Kd [14]: 25.9 nM
